# Experiment: yeast display, Sf9 membrane polyspecificity reagent, FACS + sequencing; frameworks hold sequencing errors
# How it was run: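 A synthetic nanobody library was expressed on Saccharomyces cerevisiae BJ5465 by galactose induction for 36–48 hours. The library was stained for 1 hour at 4 °C with 10% biotinylated, detergent-solubilized Sf9 membrane reagent and enriched with streptavidin microbeads before FACS. Low and high (top ~1%) gates were set on anti-HA fluorescence for expression and streptavidin fluorescence for reagent binding, and each polyreactivity label reflects the gate of origin.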
row,Sequence,polyreactivity (PSR sort gate)
1,QVQLVESGGGLVQAGGSLRVSCAASGITSPYNAMGWYRQAPGKERELVAGITSGDSTDYADSVKGRFTISRDNAKNTVYLQMNSLKPEDTAVYYCAADSIRYCDYDYWGHGTQVTVSS,low polyreactivity
2,QVQLVESGGGLVQAGGSLRVSCAASGLIFYRYAMGWYRQAPGKERELVAAITTRGGSTYYADSVKGRFTISRDNAKITVYLQMNSLKPEDTAVYYCATYFRAKGYTGRYYYWGQGTQVTVSS,high polyreactivity
3,QVQLVESGGGLVQAGGSLRVSCAASGRIFDENAMGWYRPAPGKERELVAAIDWSGGSTYYADSVKGRFTISRDYAKNTVYLQMNRQKPEDTAVYYCNADYYYYVSLGWWSFIVSEYDYWGHGTQVTVSS,low polyreactivity
4,QVQLVESGGGLVQAGGSLRVSCAASGRNFYYYAMGGYRQAPGKERELVAAINWSGGGTYYADSVKGRFTISRDNAKNTVYFQMNSLKPEDTAVYYCAAGFRYRYYWGQGTQVTVSS,high polyreactivity
5,QVQLVESGGGLVQAGGSLRVSCAASGRTFRPNAMGWYRQAPGKERELVAAISGGGGSTYYADSVKGRFTISRDIAKNTVYLLMNSLKPEVTAVYYCNKVEQGRYGYWGQGTQVTVSS,high polyreactivity
6,QVQLVESGGGLVQAGGSLRVSCAASGRTSSINAMGWYREAPGKERELVAVITGRGGSTYYADSVKGRCTISRDNAKNTVYLQINSLKPEDTAVYYCAARRVPSVSGTYDYWGQGTQVTVSS,high polyreactivity
7,QVQLVESGGGLVQAGGSLRVSCAASGSIFQANAMGGYRQAPGKERELVAASRWSGGSTNYPDSVKGRFSISRDNAKNTVYLPMNSLKPEDTAVYYCAAKRFSSPYWEYYWGQGTQVTVSS,high polyreactivity
8,QVQLVESGGGLVQAGGSLRVSCAASGSNFLGYTMGWYRQAPGKERELVAAINSSGGSTYYADSVKGRFTISRDNAKNNVYLQMNSLKPEDTAVYYCADANSILLFDSWGQGTQVTVSS,low polyreactivity
9,QVQLVESGGGLVQAGGSLRVSCAASGSTFQYNAMGWYRQAPGKERELVAVITRRGGRTYYADSVKGRFTISRDNAKNSVYLQLNSLKAEDTAVYYCAAYFDYTHRFYYWGQGTQVTVSS,high polyreactivity
10,QVQLVESGGGLVQAGGSLRVSCAASGSTFRRNNMGWYRQAPGKERELVAGISSSGGSTYYADSVKGRFTISRDNAKNTVYLQMNSLKPEDTAVYYCDARFYVSYVGYNYWGQGTQVTVSS,high polyreactivity
11,QVQLVESGGGLVQAGGSLRVSCAASGSTFWSYAMGGYRQAPGKARELVAGITQSGGSTYYADSVKGRFTISRDTAKHTLYLQMNSLQPEDTAVYDCAKDGRVSGDFDYWGQGTQGTVSS,low polyreactivity
12,QVQLVESGGGLVQAGGSLRVSCAASGYIFYGNTMGWYRQAPGKEWELVAAISYDGGSTYYADSVKGRFTISRDNAKNTVYLQMNSLKPEDTAVYYCAADTFSFRWSDYWGQGTQVTVSS,low polyreactivity
13,QVQLVESGGGLVQAGGSLRVSCAASGYTIKYYAMGWYRQAPGKERELVAAISKDGGSTYYADSVKGRFTISRDNAKNTVYLQMNSLKPEDTAVYYCAAKSNVRYGWREFYWGQGTQVTVSS,high polyreactivity
14,QVQLVESGGGLVQAGGSLRVSCAAYGRIFLANAMGGYRTAAGKERELVAAISYSGGSTYYADSVKGRFTISRDNAKNTVYLQMNSLKPEDTAVYYCAADAFTWYTGRAWKYYYWGHGTQVTVSS,low polyreactivity
15,QVQLVESGGGLVQAGGSLRVSCADSGGIFALNDMGWYRQAPGKERELVAAINGAGTYYADSVKGRFTISRDNAKNTVYLQRNSLKPEDTAVYYCARGSLHWEYARTWTRVEYDYWGQGTQVTVSS,low polyreactivity
16,QVQLVESGGGLVQAGGSLRVSCAPSGGTFGYYTMGWYRQAPGTERELVAAISSGGGTDYADSVKGRFTISRDNAKNTVYLQMNSLKPEDTAVYYCNAKWLELHYVFLPSYTMDYWGHGTQVTVSS,low polyreactivity
17,QVQLVESGGGLVQAGGSLRVSCAPSGRTFRYNTMGWYRPAPGKERELVARITWSGGSTYYADSVKGRFTISRDNAKNTVYLQMNSLKPEDTAVSYCAAGSGWRFDYWGQGTQVTVSS,low polyreactivity
18,QVQLVESGGGLVQAGGSLRVSCASSGFTFVYYAMVWYRQAPGKERELVATISGNGGRTYYADSVKGRFTISRDNAKNTVYLLMHSLKPEDTAVYYSAALLYIRSVGDDYWGQGTKVTVSS,low polyreactivity
19,QVQLVESGGGLVQAGGSLSLICAASGFIFYYYAMGWYRQAPGKERELVAGMSRRGGSTYYADSVKGRFTISRDNAKNTVYLQMNSLKPEDTAVYYCAALGDDATSYGYWGQGTQVTVSS,high polyreactivity
20,QVQLVESGGGLVQAGGSLSLICAASGRFSNAMGWYIQAPGKERELVAAITLSGTSTYYADSVKGRFTISRDNAKNTVYLQMNSLKTEDTAVYYCAAGSGYGVTWVYSPYTGVDYWGQGTQVTVSS,low polyreactivity
21,QVQLVESGGGLVQAGGSLSLICAASGSIFYEYAMGWYRQAPGKEREFVAAISSSGGSTYYADSVKGRFTISRDNAKNTVYLQMNSLKPEYTAVYYCNAQVGGVSIEYDYWGQGTQVTVSS,low polyreactivity

row,Sequence,polyreactivity (PSR sort gate)
1,QVQLVESGGGLVQAGGSLSLSCAASGFIFNYYVMGWYRQAPGKERELVATISWRGGRTYYADSVKGRFTISRDNAKNTVYLQMNSLKPEDTAVYYCAKDSYYFTRYDYWGQGTQVTVSS,low polyreactivity
2,QVQLVESGGGLVQAGGSLSLSCAASGFIFPGNAKGWYRQAPGKERELVATISSGGSTKYADSVKGRFTISRDNANNTVYLQMNSLKPEDTAVYYCAARVYLGVFDYYYWGQGTQVTVSS,low polyreactivity
3,QVQLVESGGGLVQAGGSLSLSCAASGFIFYGYAMGWYRQAPGKEREIVAAISGRGDRTYYADSVKGRFTISRDNAKNTVYLQMNSLNPEDTAVYYCAALQLRYSGALWYDYWGQGTQVTVSS,high polyreactivity
4,QVQLVESGGGLVQAGGSLSLSCAASGFILDYNTKGWYRQAPGKEREVVAAISSSGDTTYYADSVKGRFTISRDNAKYTVYLQMNSLKPEDTAVYYCAREYGDGYEYWVQGTQVTVSS,low polyreactivity
5,QVQLVESGGGLVQAGGSLSLSCAASGFTFAKYAMGWYRQAPGKERELVATISWSGGTTSYADSVKGRFTISRDNAKNTVYLQMNSLKPEDTAVYYCAALRYADYDYWGQGTQVTVSS,high polyreactivity
6,QVQLVESGGGLVQAGGSLSLSCAASGFTFGTNAMGWYRQAPGKERELVAAISSRGGSTYYADSVKGRFTISRDNAKNTVYLEMNSLKPEDTAVYYCARRVAGRQHEYGYWGLGTQVTVSS,high polyreactivity
7,QVQLVESGGGLVQAGGSLSLSCAASGFTFSRYAMGWYRQAPGKERELVAAISDDGGSTYYADSVKGRFTISRDNAKNTVYLQMNSLKPEDTAVYYCAARFYWSYGYWGQGTQVTVSS,high polyreactivity
8,QVQLVESGGGLVQAGGSLSLSCAASGGTFSRYGMGWYRQAPGKEREMVAAISRSGGSTYYADSVKWRFTISRDNAKNTVYLQMNSLKPEDTAVYYCAAKLPIPYTTGRYAAMDYWGQGTQVTVSS,high polyreactivity
9,QVQLVESGGGLVQAGGSLSLSCAASGGTFTFYAMGWYRQAPGKERELVATINWSGGSTYYADSVKGRFTISRDNAKNTVYIQMNCLKPEDSAVYYCNAAWAYKSVEYWGQGTQVTVSS,low polyreactivity
10,QVQLVESGGGLVQAGGSLSLSCAASGIIFIYYGMGWYRQAPGKERELVAAISRSGGRTYYADSVKGRFTISRDNAKNTVYLQMNSLKPEDTAVYYCATTYTPTGFDYWGQGTQVTVSS,high polyreactivity
11,QVQLVESGGGLVQAGGSLSLSCAASGIIFYDYAMGWYRQAPGKERELVAAITSGGSTNYADSVKGRFTISRDNAKNTVYLLMNRLKPEVTAVYYCAATYWSWISLRFYWGLGTQVTVSS,low polyreactivity
12,QVQLVESGGGLVQAGGSLSLSCAASGIIFYYYAMGWYRQAPGKERELVAAISTSGGRTYYADSVKGRFTISRDNAKNTVYLQMNSMKPEDTAVYYCAADYLKGEEDYWGQGTQVTVSS,low polyreactivity
13,QVQLVESGGGLVQAGGSLSLSCAASGIIIRRYAMGWYRQAPRKERELVATITWSGGSTYYADSVKGRFTISRDNAKNTVYLQMNSLKPEDTAVDYCAKLTSYRGRYNYWGQGTQVTVSS,high polyreactivity
14,QVQLVESGGGLVQAGGSLSLSCAASGIISTYYVMGWYRQAPGKERELVAAITGGDSSTYYADSVKGRFTISRDNAKNTVYLQMNSLKPEDTAVYYCAKEYYYARGARYDYWGQGTQVTVSS,low polyreactivity
15,QVQLVESGGGLVQAGGSLSLSCAASGNIVPSYVMGWYRQAPGKERELVAAITWNGGSTYYADSVKGRFTISRDNAKNTVYLQMNSLKPEDTAVYDCATSGPRLLRYYSSSSPSYDYWGQGTQVTVSS,low polyreactivity
16,QVQLVESGGGLVQAGGSLSLSCAASGRIFATNAMGWYRQAPGKERELVATITRSDGRTYYAVSVKGRFTISRDNAMNSVYLEMNSLKPEDTAVYFCAAYYSDTEPGYREYDYWGQGTQVTLSS,low polyreactivity
17,QVQLVESGGGLVQAGGSLSLSCAASGRIFRYNAMGWYRQAPGKERELVAGINGRSGSTTYADSVKGRFTISRDNAKNTVYLQMNSLKPEDTAVYYCAIVYGGYHYAFRSSRGMGYWGQGTQVTVSS,high polyreactivity
18,QVQLVESGGGLVQAGGSLSLSCAASGRLFARNTMGWYRQAPGKEREFVAAIDRRGGSTYYADSVKGRFTISRDNAKNTVYLQMNSLKPEDTAVYYCNKDTRRSGRMDSWGQGTEVTVSS,low polyreactivity
19,QVQLVESGGGLVQAGGSLSLSCAASGRNFYANTMGWYRQAPGKERELVASISYSSGSTYADSVKGRFTISRDNAKNTVYLQMNSLKPEDTAVYYCAARTYWYPRRPIYDYWGQGTQVTVSS,high polyreactivity
20,QVQLVESGGGLVQAGGSLSLSCAASGRTFGPYAMGWYRKAPGKERELVAVISGRGTSTYYADSVKGRFTISRDNAKNTVYLQMNSLKPEDTAVYYCNADYGSWYWGFDYWGQGTQVTVSS,low polyreactivity

# Reference: the nanobody polyreactivity screen of Harvey et al. (2022)
